Experimental data reported in PMC1807967.
Read-outs that look alike come from different tables or passages of the source.

T1: ttSmr (Thermus thermophilus, UniProt Q5SHT5 621-744)
T1 sequence: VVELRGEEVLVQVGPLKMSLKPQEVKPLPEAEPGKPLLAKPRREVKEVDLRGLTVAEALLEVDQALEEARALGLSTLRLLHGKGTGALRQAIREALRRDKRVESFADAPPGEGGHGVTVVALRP

T2: ttMutS2 (Thermus thermophilus, UniProt Q5SHT5 1-744)
T2 sequence: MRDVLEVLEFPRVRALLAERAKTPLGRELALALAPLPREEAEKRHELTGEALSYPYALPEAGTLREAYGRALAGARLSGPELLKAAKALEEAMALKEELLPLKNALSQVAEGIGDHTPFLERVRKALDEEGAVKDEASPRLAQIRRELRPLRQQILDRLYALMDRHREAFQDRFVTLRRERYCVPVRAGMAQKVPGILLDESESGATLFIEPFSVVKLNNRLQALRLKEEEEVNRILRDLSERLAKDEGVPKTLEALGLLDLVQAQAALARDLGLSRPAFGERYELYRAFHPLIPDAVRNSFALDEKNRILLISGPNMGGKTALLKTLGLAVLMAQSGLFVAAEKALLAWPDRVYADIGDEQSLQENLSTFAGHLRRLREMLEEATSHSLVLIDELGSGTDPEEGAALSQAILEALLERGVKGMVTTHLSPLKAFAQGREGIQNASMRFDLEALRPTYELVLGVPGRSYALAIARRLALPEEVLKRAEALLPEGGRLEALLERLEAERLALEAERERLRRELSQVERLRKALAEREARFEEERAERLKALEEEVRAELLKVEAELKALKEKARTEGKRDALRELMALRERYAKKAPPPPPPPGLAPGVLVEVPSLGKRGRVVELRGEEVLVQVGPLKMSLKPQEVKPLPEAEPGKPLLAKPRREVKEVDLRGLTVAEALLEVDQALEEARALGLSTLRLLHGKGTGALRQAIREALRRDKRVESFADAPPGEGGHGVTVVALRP

T3: N60-ttMutS2 (Smr-deleted) (Thermus thermophilus, UniProt Q5SHT5 1-540)
T3 sequence: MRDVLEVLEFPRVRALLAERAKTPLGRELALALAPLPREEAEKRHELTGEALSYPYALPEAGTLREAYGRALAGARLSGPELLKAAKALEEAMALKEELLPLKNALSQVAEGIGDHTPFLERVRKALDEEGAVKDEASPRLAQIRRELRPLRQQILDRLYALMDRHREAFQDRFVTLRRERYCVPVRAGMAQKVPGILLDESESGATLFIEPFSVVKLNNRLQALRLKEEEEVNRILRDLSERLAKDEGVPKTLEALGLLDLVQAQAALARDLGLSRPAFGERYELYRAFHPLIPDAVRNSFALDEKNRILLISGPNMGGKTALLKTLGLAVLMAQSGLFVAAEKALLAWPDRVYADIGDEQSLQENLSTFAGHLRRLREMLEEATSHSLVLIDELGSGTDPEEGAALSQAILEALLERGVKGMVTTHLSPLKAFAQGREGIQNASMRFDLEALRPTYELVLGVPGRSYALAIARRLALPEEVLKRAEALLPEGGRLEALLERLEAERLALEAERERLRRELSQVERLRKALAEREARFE

B1: 20 bp dsDNA (dsDNA)
DNA 1: ATGTGAATCAGTATGGTTTC
DNA 2: GAAACCATACTGATTCACAT

Tests used:
Assay in all cases: EMSA
[1] = molecular target: T1, ttSmr
[2] = molecular target: T2, ttMutS2
[3] = molecular target: T3, N60-ttMutS2 (Smr-deleted)
[4] = molecular target: T2, ttMutS2; remark: listed apart in the source
[5] = molecular target: T3, N60-ttMutS2 (Smr-deleted); remark: listed apart in the source

Binder	binding result [1]	binding result [2]	binding result [3]	binding result [4]	binding result [5]
ATGTGAATCAGTATGGTTTC (ssDNA) [20mer ssDNA]	binds	no binding	no binding	–	–
B1	–	–	–	binds	binds
